For assay [1], the target named is T1, C10-DDB1 (UniProt Q16531 1-1140).
T1 construct: also called wild type DDB1; source: HepG2, transfected, in cells; not shown: C10 tag (tripartite NanoLuc), N-terminal, kept
Briefly: split reporter (BiFC, NanoBiT); tripartite Nanoluc luciferase: C10-tagged and N8-tagged proteins co-transfected with a plasmid expressing Nano1-7 into HepG2 cells; luciferase activity measured 48 h post-transfection. As to conditions: partners not purified.

Assay [2] has as its target T2, C10-STAU1 (UniProt O95793 1-577).
T2 construct: also called wild type STAU1; source: HepG2, transfected, in cells; not shown: C10 tag (tripartite NanoLuc), N-terminal, kept
T2 sequence (looked up): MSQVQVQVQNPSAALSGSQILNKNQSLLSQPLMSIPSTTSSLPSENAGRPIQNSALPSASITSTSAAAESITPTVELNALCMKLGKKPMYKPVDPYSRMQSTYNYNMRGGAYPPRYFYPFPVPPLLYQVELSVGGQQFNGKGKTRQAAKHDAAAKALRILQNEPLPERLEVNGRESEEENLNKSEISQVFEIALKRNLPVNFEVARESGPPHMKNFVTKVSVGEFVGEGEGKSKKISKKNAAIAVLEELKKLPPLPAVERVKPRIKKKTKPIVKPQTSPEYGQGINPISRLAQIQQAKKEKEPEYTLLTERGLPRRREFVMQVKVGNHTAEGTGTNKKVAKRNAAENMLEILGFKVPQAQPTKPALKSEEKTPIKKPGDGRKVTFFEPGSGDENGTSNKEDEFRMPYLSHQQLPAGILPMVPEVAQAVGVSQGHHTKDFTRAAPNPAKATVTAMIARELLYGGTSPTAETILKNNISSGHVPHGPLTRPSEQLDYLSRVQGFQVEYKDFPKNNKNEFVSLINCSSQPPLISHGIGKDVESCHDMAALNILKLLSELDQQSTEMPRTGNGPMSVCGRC
The description is as above. The note with it: partners not purified.

T1 sequence (Q16531 whole entry): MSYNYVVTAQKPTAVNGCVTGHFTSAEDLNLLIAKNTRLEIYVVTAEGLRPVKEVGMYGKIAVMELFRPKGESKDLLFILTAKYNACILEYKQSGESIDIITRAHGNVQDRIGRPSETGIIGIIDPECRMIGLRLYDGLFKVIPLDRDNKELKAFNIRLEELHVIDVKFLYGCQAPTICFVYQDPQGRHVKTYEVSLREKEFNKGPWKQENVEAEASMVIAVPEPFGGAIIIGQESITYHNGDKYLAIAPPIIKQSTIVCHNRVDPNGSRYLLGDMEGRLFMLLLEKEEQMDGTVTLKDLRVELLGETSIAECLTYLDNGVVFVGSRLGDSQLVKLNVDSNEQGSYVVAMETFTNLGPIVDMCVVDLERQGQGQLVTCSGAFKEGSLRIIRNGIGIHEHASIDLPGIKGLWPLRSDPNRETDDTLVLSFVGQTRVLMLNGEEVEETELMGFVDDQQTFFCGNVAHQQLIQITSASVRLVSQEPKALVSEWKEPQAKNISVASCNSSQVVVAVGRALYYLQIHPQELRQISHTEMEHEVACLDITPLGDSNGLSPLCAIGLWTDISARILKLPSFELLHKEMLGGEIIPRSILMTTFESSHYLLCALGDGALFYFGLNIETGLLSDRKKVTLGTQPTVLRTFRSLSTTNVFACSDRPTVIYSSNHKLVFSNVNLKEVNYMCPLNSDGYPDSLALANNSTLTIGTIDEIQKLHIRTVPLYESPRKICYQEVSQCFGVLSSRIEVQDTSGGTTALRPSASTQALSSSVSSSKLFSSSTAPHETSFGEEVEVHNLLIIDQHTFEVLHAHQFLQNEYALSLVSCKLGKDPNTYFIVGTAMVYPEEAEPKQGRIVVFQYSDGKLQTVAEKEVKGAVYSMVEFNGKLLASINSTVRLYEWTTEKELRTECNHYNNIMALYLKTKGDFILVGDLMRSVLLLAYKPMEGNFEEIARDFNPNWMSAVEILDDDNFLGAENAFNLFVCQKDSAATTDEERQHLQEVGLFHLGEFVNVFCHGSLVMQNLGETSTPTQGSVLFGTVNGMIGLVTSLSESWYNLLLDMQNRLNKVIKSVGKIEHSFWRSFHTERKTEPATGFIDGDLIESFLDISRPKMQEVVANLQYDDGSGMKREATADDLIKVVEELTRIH

B1: N8-HBx (natural protein)
chain: MAARLCCQLDPARDVLCLRPVGAESRGRPFSGSLGTLSSPSPSAVPTDHGAHLSLRGLPVCAFSSAGPCALRFTSARRMETTVNAHQILPKVLHKRTLGLSAMSTTDLEAYFKDCLFKDWEELGEEIRLKVFVLGGCRHKLVCAPAPCNFFTSA
notes: also called X protein; wild type HBx; source: HepG2, transfected, in cells; not shown: N8 tag (tripartite NanoLuc), N-terminal, kept
For B1, the “fold luminescence over the controls” value in assay [1] was roughly 200 fold; in assay [2] it was 28 fold.

B2: N8-TAF10 (natural protein)
chain: not shown
notes: source: transfected cells (tripartite NanoLuc system), in cells
B2: the “fold luminescence over the control” value in assay [2] was greater than 20 fold.

Source of the values: PMC9156947, “Identification of STAU1 as a regulator of HBV replication by TurboID-based proximity labeling” (iScience, 2022).
